Measured values as given in patent US20030108957A1.

Key:
GroEL (E. coli) = GroEL (E. coli) (UniProt P0A6F5)
[1] = molecular target: guanyl-nucleotide binding protein Ras (21 kDa); assay: competition fluorescence polarization: 4 µM Ras (negative control) preincubated with 4 µM unlabeled pyrrhocoricin, then 1 nM fluorescein-K-pyrrhocoricin; used as the correction for the DnaK and GroEL readings
[2] = molecular target: guanyl-nucleotide binding protein Ras (21 kDa); assay: competition fluorescence polarization: 4 µM Ras (negative control) preincubated with 8 µM unlabeled pyrrhocoricin, then 1 nM fluorescein-K-pyrrhocoricin; used as the correction for the DnaK and GroEL readings

Row | decrease of the millipolarization reading after preincubation (millipolarization units) [1] | decrease of the millipolarization reading after preincubation (millipolarization units) [2] | Substance | millipolarization over the background (GroEL (E. coli))
1 | – | – | fluorescein-labeled β-tubulin fragment aa434-445 (peptide) | 50%
2 | 16 | 27 | pyrrhocoricin (unlabeled, all L-amino acids, without sugar) (peptide) | –
